Measurements: IntAct's records for PubMed 20952388

B1: Ethylene receptor 1 (Arabidopsis thaliana (Mouse-ear cress)), P49333 (parent)
chain: MEVCNCIEPQWPADELLMKYQYISDFFIAIAYFSIPLELIYFVKKSAVFPYRWVLVQFGAFIVLCGATHLINLWTFTTHSRTVALVMTTAKVLTAVVSCATALMLVHIIPDLLSVKTRELFLKNKAAELDREMGLIRTQEETGRHVRMLTHEIRSTLDRHTILKTTLVELGRTLALEECALWMPTRTGLELQLSYTLRHQHPVEYTVPIQLPVINQVFGTSRAVKISPNSPVARLRPVSGKYMLGEVVAVRVPLLHLSNFQINDWPELSTKRYALMVLMLPSDSARQWHVHELELVEVVADQVAVALSHAAILEESMRARDLLMEQNVALDLARREAETAIRARNDFLAVMNHEMRTPMHAIIALSSLLQETELTPEQRLMVETILKSSNLLATLMNDVLDLSRLEDGSLQLELGTFNLHTLFREVLNLIKPIAVVKKLPITLNLAPDLPEFVVGDEKRLMQIILNIVGNAVKFSKQGSISVTALVTKSDTRAADFFVVPTGSHFYLRVKVKDSGAGINPQDIPKIFTKFAQTQSLATRSSGGSGLGLAISKRFVNLMEGNIWIESDGLGKGCTAIFDVKLGISERSNESKQSGIPKVPAIPRHSNFTGLKVLVMDENGVSRMVTKGLLVHLGCEVTTVSSNEECLRVVSHEHKVVFMDVCMPGVENYQIALRIHEKFTKQRHQRPLLVALSGNTDKSTKEKCMSFGLDGVLLKPVSLDNIRDVLSDLLEPRVLYEGM
partner: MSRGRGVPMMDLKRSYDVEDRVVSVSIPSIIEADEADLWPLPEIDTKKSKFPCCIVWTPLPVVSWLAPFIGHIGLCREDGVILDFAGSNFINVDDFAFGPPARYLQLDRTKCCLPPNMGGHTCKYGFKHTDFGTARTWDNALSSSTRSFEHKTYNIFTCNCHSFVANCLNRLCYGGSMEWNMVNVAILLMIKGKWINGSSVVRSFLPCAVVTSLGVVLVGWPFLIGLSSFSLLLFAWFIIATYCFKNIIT

Variants of: B1
Conditions: with rte1_arath RTE1, F4ITL6

Variant | effect of a mutation on the interaction
C65W | decreasing interaction
A102T | decreasing interaction
